The values below come from patent US20070190061A1.

The test has as its target HMW-MAA-specific idiotypic mAb 763.74. As to the kind of experiment: peptide concentration giving 50% inhibition of biotinylated mAb 763.74 binding to Colo38 cells, cell ELISA. (In an ELISA, binding on a coated surface is turned into a signal by an enzyme label.)

On to ARSNYVGYHVRWYFD [peptide PMK2-23H3 (anti-id mAb MK2-23 H3-derived peptide)], for which the IC50 (as a rule, the midpoint of a concentration-inhibition curve) was 871 nM.

IRSGDEVHYHVTAGPRW [peptide PHMW-MAA.D2.7 (HMW-MAA-derived peptide)] showed an IC50 of 900 nM.
